Experimental data: US20020058024A1 (YEDA RESEARCH AND DEVELOPMENT, published 2002)

T1: RAP (RIP-associated protein) (human, UniProt Q9Y3I1 1-522, limits assumed)
T1 construct: The clone first isolated in the two-hybrid screen was a partial clone of about 1.9 Kb; also called RAP protein; RAP-1 (clone of about 2.2 kB, CNCM I-2706)
T1 sequence: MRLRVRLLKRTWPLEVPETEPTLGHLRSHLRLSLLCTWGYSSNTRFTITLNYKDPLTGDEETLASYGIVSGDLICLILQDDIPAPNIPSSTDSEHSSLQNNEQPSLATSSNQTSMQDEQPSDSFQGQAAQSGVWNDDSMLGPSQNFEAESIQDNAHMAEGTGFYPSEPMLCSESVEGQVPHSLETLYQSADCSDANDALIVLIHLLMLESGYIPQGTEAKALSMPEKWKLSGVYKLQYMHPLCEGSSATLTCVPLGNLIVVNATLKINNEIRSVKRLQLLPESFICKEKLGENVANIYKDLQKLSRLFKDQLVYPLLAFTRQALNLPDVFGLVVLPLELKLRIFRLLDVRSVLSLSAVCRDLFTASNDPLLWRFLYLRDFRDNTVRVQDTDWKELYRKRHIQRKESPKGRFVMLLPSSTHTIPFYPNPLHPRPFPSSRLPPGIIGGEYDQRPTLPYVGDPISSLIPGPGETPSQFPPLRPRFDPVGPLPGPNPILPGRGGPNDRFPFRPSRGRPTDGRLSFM


Target: T1, RAP (RIP-associated protein)
Test: binding assay tests (method not named)

binding result	Binder
no binding	TRADD (other, UniProt Q15628 1-312, looked up) MAAGQNGHEEWVGSAYLFVESSLDKVVLSDAYAHPQQKVAVYRALQAALAESGGSPDVLQMLKIHRSDPQLIVQLRFCGRQPCGRFLRAYREGALRAALQRSLAAALAQHSVPLQLELRAGAERLDALLADEERCLSCILAQQPDRLRDEELAELEDALRNLKCGSGARGGDGEVASAPLQPPVPSLSEVKPPPPPPPAQTFLFQGQPVVNRPLSLKDQQTFARSVGLKWRKVGRSLQRGCRALRDPALDSLAYEYEREGLYEQAFQLLRRFVQAEGRRATLQRLVEALEENELTSLAEDLLGLTDPNGGLA
no binding	p55-R (receptor, UniProt P19438 235-455, looked up, also called p55 TNF-R; p55 tumor necrosis factor receptor) RYQRWKSKLYSIVCGKSTPEKEGELEGTTTKPLAPNPSFSPTPGFTPTLGFSPVPSSTFTSSSTYTPGDCPNFAAPRREVAPPYQGADPILATALASDPIPNPLQKWEDSAHKPQSLDTDDPATLYAVVENVPPLRWKEFVRRLGLSDHEIDRLELQNGRCLREAQYSMLATWRRRTPRREATLELLGRVLRDMDLLGCLEDIEEALCGPAALPPAPSLLR
no binding	p75-R (receptor, UniProt P20333 287-461, looked up, also called p75 TNF-R; p75 tumor necrosis factor receptor) VKKKPLCLQREAKVPHLPADKARGTQGPEQQHLLITAPSSSSSSLESSASALDRRAPTRNQPQAPGVEASGAGEARASTGSSDSSPGGHGTQVNVTCIVNVCSSSDHSSQCSSQASSTMGDTDSSPSESPKDEQVPFSKEECAFRSQLETPETLLGSTEEKPLPLGVPDAGMKPS
no binding	MORT-1 (other, UniProt Q13158 1-208, looked up, also called FADD) MDPFLVLLHSVSSSLSSSELTELKFLCLGRVGKRKLERVQSGLDLFSMLLEQNDLEPGHTELLRELLASLRRHDLLRRVDDFEAGAAAGAAPGEEDLCAAFNVICDNVGKDWRRLARQLKVSDTKIDSIEDRYPRNLTERVRESLRIWKNTEKENATVAHLVGALRSCQMNLVADLVQEVQQARDLQNRSGAMSPMSWNSDASTSEAS
